Data set [1] addresses T1, MBP-TDF1 (Arabidopsis thaliana) (UniProt Q9LSI7).
T1 sequence: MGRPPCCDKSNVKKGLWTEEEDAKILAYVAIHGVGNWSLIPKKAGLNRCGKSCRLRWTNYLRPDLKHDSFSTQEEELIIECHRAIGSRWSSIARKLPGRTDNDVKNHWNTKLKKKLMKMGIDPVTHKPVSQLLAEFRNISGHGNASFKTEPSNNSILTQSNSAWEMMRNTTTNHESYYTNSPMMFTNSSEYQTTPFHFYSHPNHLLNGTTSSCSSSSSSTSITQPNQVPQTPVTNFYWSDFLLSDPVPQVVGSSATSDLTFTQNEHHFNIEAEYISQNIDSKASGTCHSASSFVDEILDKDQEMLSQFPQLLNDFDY
Briefly: EMSA. As to conditions: 10 mM Tris-HCl pH 7.5, 50 mM KCl, 1 mM DTT, 20 uL, room temperature 20 min; 6% polyacrylamide, 0.5x TBE.

The target in data set [2] is T1, MBP-TDF1 (Arabidopsis thaliana). In words: competition. Particulars: 10 mM Tris-HCl pH 7.5, 50 mM KCl, 1 mM DTT, 20 uL, room temperature 20 min; 6% polyacrylamide, 0.5x TBE.

Take “TACGTGATTAGGATTTGTAACCACGTAGACGTGTAAAACAAAATTACTTTTTTATCTGTGATTTATAGGAATTTGAGATTTGAATGCAACGTTGTTGTTTCATCTAACAATAAGTGATGAAGAACTTCAAAAGTCTAAAACCATATCATTTATAAAATCA (double strand) [SKS18 promoter 18-2 probe]”: the binding entry in data set [1] and in data set [2] was “binds” each time.

The values are drawn from PMC10118275.
